Consider two molecules from article PMC7504393 (International Journal of Molecular Sciences, 2020).

The target in experiment [1] is T1, recombinant human YKL-40 protein (hYKL-40) (Homo sapiens, UniProt P36222).
T1 construct: human YKL-40 (chitinase-3-like 1, CHI3L1), recombinant protein from Sino Biological; also called chitinase-3-like 1; CHI3L1; source: bought: Sino Biological
In words: ELISA; hYKL-40 coated at 2 ug/mL (30 uL per well, overnight, 4 °C); serially diluted Fabs, 1 h at 37 °C; detection with HRP-conjugated StrepMAB-Classic; apparent affinity (EC50). The conditions noted are these: both partners purified.

Experiment [2] concerns the target T1, recombinant human YKL-40 protein …. In words: BLI; Octet QK384; hYKL-40 amine-coupled to AR2G tips (15 ug/mL, 10 mM sodium acetate pH 5.0); H1 (IgG) 50 nM~0 nM in 2-fold dilutions in PBS with 0.09% Tween 20; 1:1 binding model; apparent KD. The conditions noted are these: both partners purified.
Experiment [3] deals with T2, native YKL-40 from murine cells (Mus musculus, UniProt Q61362).
T2 construct: mouse YKL-40 (chitinase-3-like protein 1), endogenous in murine cells; source: endogenous, murine cell lysates (including mouse lung cells)
T2 sequence (Q61362 30-389): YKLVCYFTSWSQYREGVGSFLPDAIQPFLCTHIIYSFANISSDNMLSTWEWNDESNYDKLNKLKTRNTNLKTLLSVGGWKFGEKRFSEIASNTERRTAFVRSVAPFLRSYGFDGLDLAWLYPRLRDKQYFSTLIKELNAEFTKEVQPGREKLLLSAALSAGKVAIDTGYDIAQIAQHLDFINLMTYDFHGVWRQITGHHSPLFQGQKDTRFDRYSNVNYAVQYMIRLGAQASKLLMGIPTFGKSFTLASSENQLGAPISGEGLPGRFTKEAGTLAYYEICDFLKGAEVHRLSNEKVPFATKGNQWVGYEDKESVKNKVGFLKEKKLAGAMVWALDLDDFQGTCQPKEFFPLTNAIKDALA
Briefly: western blot; H1 (IgG) as the probing antibody on lysates of human and murine cells (Figure S5). The settings on record: one partner purified. In general terms: Immunoblotting shows a protein as a band on a membrane.

Experiment [4] has as its target T1, recombinant human YKL-40 protein …. Briefly: ELISA; soluble ELISA of serially diluted IgGs on immobilized hYKL-40 surfaces; apparent affinity (EC50). The conditions noted are these: both partners purified. A general note: ELISA stands for enzyme-linked immunosorbent assay.
The target in another experiment is T3, recombinant mouse YKL-40 (Mus musculus, UniProt Q61362).
T3 construct: mouse YKL-40 (chitinase-3-like protein 1), recombinant
T3 sequence (Q61362 30-389): as above
In words: western blot; H1 (IgG) as the probing antibody on recombinant human and mouse YKL-40 (Figure S5). The conditions noted are these: both partners purified.

T1 sequence (P36222 22-383): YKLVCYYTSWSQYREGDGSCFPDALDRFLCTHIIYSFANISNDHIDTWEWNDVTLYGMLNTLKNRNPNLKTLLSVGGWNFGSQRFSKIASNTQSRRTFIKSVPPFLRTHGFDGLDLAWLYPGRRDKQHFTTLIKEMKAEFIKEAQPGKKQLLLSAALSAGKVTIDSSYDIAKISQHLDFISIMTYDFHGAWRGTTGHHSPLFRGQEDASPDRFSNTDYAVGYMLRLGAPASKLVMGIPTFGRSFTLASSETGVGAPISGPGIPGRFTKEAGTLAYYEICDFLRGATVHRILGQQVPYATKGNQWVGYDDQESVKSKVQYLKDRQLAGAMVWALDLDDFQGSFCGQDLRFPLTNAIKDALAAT

B1: H1 (Fab), human anti-hYKL-40 Fab (Fab, V domains shown)
VH: EVQLVESGGGLVQPGGSLRLSCAASGFTFSNYAMSWVRQAPGKGLEWVSGISGSGGTTYYADSVKGRFTISRDNSKNTLYLQMNSLRAEDTAVYYCAGVGTFDVWGQGTLVTVSS
VL: DIQMTQSPSSLSASVGDRVTITCRASQTISSWLNWYQQKPGKAPKLLIYAASRLQSGVPSRFSGSGSGTDFTLTISSLQPEDFATYYCQQSYSTPLTFGQGTKVEIK
notes: heavy chain (VH-CH1) of the H1 Fab, from the synthetic library KFab-I (human VH3 framework, randomised CDRs); light chain (VL-CL) of the H1 Fab, from the synthetic library KFab-I (human Vk1 framework, randomised CDRs); it is written on the heavy chain as a surmise; Expression vector pKFAB (in-house); source: E. coli Top10F', periplasmic extract, purified (Strep-Tactin XT)
In the case of B1, in experiment [1], the EC50 (in general, the concentration that produces a half-maximal response) was found to be 2.3 nM.

B2: H1 (IgG), human anti-hYKL-40 IgG (antibody, V domains shown)
VH: EVQLVESGGGLVQPGGSLRLSCAASGFTFSNYAMSWVRQAPGKGLEWVSGISGSGGTTYYADSVKGRFTISRDNSKNTLYLQMNSLRAEDTAVYYCAGVGTFDVWGQGTLVTVSS
VL: DIQMTQSPSSLSASVGDRVTITCRASQTISSWLNWYQQKPGKAPKLLIYAASRLQSGVPSRFSGSGSGTDFTLTISSLQPEDFATYYCQQSYSTPLTFGQGTKVEIK
notes: VH of H1, as in the heavy chain of m2 (PDB 7CJ2); human VH3 framework; human IgG1 heavy-chain constant region, from the heavy-chain vector (pOptiVEC) used for Herceptin expression as IgG1 backbone; VL-CL (Vk1, Ck1) of H1, as the light chain of m2 (PDB 7CJ2); IgG1, kappa; VL and CL were amplified and joined by overlap extension PCR; VH was cloned into the Herceptin IgG1 backbone; also called H1 …
Regarding B2, in experiment [2], the Kd is 0.05 nM. The binding result (in experiment [3]; in the experiment with recombinant mouse YKL-40) was “binds” in each case. Moreover, in experiment [4], the EC50 is 0.5 nM.
